Laboratory results reported in patent US20190142971A1, “FORMULATION AND DELIVERY OF MODIFIED NUCLEOSIDE, NUCLEOTIDE, AND NUCLEIC ACID COMPOSITIONS” (ModernaTX, Inc., priority 2013, published 2019).

Tests used:
Assay type in all cases: in vivo
mice [1] = assay: Example 18: time course LNP IV in mice, serum EPO/G-CSF ELISA (Table 35); details: for protein expression detectable out to: mice IV; for EPO / G-CSF Serum Concentration: mice, LNP IV
Procedure: Formulations, listed in Table 33, were characterized by particle size, zeta potential, and encapsulation.
LNP formulations, shown in Table 33 (above), were administered to mice (n=5) intravenously (IV) at a single modified mRNA dose of 0.5, 0.05 or 0.005 mg/kg. The mice were bled at 8 hours, 24 hours, 72 hours and 6 days after they were administered with G-CSF or EPO modified mRNA formulations to determine protein expression using ELISA.

Sprague-Dawley rats = assay: Example 34: EPO mRNA in buffer IM in rats, serum EPO (Table 59); details: 13 hours post injection
[2] = tested on: non-human primates (cynomolgus monkey); assay: Example 22: LNP IV in non-human primates, serum G-CSF/EPO ELISA (Tables 38, 39)
Procedure: LNP formulations, shown in Table 33 (above), were administered to non-human primates (NHP) (cynomolgus monkey) (n=2) as intravenous injection (IV). The NHP were administered a single modified mRNA IV dose of 0.5 mg/kg, 0.05 mg/kg or 0.005 mg/kg of G-CSF or EPO in a dose volume of 0.5 mL/kg. The NHPs were bled before dosing with the modified mRNA LNP formulations to determine protein expression in the serum and a baseline complete blood count. After administration with the G-CSF modified mRNA formulation the NHP were bled at 8, 24, 48 and 72 hours to determined protein expression. After administration with the EPO modified mRNA formulation the NHP were bled at 8, 24, 48, 72 hours and 7 days to determined protein expression.
Samples collected from the NHPs after they were administered with G-CSF or EPO modified mRNA formulations were analyzed by ELISA to determine protein expression. Neutrophil and reticulocyte count was also determined pre-dose, 24 hours, 3 days, 7 days, 14 days and 18 days after administration of the modified G-CSF or EPO formulation.

mice [3] = assay: Example 42A: G-CSF/EPO mRNA in buffer IM in mice, serum protein at 13 hours (Table 67); details: EPO group: human EPO in mouse serum, IM 100 ug
Procedure: The mice were bled at 13 hours after the injection to determine the concentration of the human polypeptide in serum in pg/mL (G-CSF groups measured human G-CSF in mouse serum and EPO groups measured human EPO in mouse serum).

mice [4] = assay: Example 65: G-CSF/EPO mRNA in saline in mice, serum protein at 13 hours (Table 97); details: EPO group; 100 ug, 100 μl/mouse, F. buffer, 13 hours after injection
Procedure: The mice were bled at 13 hours after the injection to determine the concentration of the human polypeptide in serum in pg/mL. (G-CSF groups measured human G-CSF in mouse serum and EPO groups measured human EPO in mouse serum).

B1: EPO: modified mRNA encoding human erythropoietin, SEQ ID NO: 7, Cap1, fully modified with 5-methylcytosine and pseudouridine; LNP NPA-060-1 in Examples 17-22 (nucleic acid)
chain: GGGAAAUAAGAGAGAAAAGAAGAGUAAGAAGAAAUAUAAGAGCCACCAUGGGAGUGCACGAGUGUCCCGCGUGGUUGUGGUUGCUGCUGUCGCUCUUGAGCCUCCCACUGGGACUGCCUGUGCUGGGGGCACCACCCAGAUUGAUCUGCGACUCACGGGUACUUGAGAGGUACCUUCUUGAAGCCAAAGAAGCCGAAAACAUCACAACCGGAUGCGCCGAGCACUGCUCCCUCAAUGAGAACAUUACUGUACCGGAUACAAAGGUCAAUUUCUAUGCAUGGAAGAGAAUGGAAGUAGGACAGCAGGCCGUCGAAGUGUGGCAGGGGCUCGCGCUUUUGUCGGAGGCGGUGUUGCGGGGUCAGGCCCUCCUCGUCAACUCAUCACAGCCGUGGGAGCCCCUCCAACUUCAUGUCGAUAAAGCGGUGUCGGGGCUCCGCAGCUUGACGACGUUGCUUCGGGCUCUGGGCGCACAAAAGGAGGCUAUUUCGCCGCCUGACGCGGCCUCCGCGGCACCCCUCCGAACGAUCACCGCGGACACGUUUAGGAAGCUUUUUAGAGUGUACAGCAAUUUCCUCCGCGGAAAGCUGAAAUUGUAUACUGGUGAAGCGUGUAGGACAGGGGAUCGCUGAUAAGCUGCCUUCUGCGGGGCUUGCCUUCUGGCCAUGCCCUUCUUCUCUCCCUUGCACCUGUACCUCUUGGUCUUUGAAUAAAGCCUGAGUAGGAAG
modifications: Cap1, 5-methylcytosine, pseudouridine
- protein expression detectable out to (mice [1]): 6 days
- protein expression detectable out to (mice [1]; 0.005 mg/kg and 0.05 mg/kg): 3 days
- EPO / G-CSF Serum Concentration (mice [1]; 0.005 mg/kg, 8 hours): 12,508.3 pg/ml
- EPO / G-CSF Serum Concentration (mice [1]; 0.005 mg/kg, 24 hours): 6,803.0 pg/ml
- EPO / G-CSF Serum Concentration (mice [1]; 0.05 mg/kg, 8 hours): 92,139.9 pg/ml
- EPO / G-CSF Serum Concentration (mice [1]; 0.05 mg/kg, 24 hours): 54,389.4 pg/ml
- EPO / G-CSF Serum Concentration (mice [1]; 0.5 mg/kg, 8 hours): 498,515.3 pg/ml
- EPO / G-CSF Serum Concentration (mice [1]; 0.5 mg/kg, 24 hours): 160,566.3 pg/ml
- EPO / G-CSF Serum Concentration (mice [1]; 0.5 mg/kg, 72 hours): 3,492.5 pg/ml
- EPO / G-CSF Serum Concentration (mice [1]; 0.5 mg/kg, 6 days): 21.2 pg/mL
- human EPO in serum, Avg. (Sprague-Dawley rats; dose 1 μg): 28.7 pg/mL
- human EPO in serum, Geometric-mean (Sprague-Dawley rats; dose 1 μg): 25.4 pg/mL
- human EPO in serum, Avg. (Sprague-Dawley rats; dose 10 μg): 46.3 pg/mL
- human EPO in serum, Geometric-mean (Sprague-Dawley rats; dose 10 μg): 31.2 pg/mL
- human EPO in serum, Avg. (Sprague-Dawley rats; dose 50 μg): 101.5 pg/mL
- human EPO in serum, Geometric-mean (Sprague-Dawley rats; dose 50 μg): 85.4 pg/mL
- human EPO in serum, Avg. (Sprague-Dawley rats; dose 100 μg): 79.4 pg/mL
- human EPO in serum, Geometric-mean (Sprague-Dawley rats; dose 100 μg): 66.9 pg/mL
- human EPO in serum, Avg. (Sprague-Dawley rats; dose 150 μg): 67.7 pg/mL
- human EPO in serum, Geometric-mean (Sprague-Dawley rats; dose 150 μg): 67.1 pg/mL
- Female NHP Serum G-CSF / EPO Concentration ([2]; 0.005 mg/kg IV, 8 hours): 523 pg/mL
- Male NHP Serum G-CSF / EPO Concentration ([2]; 0.005 mg/kg IV, 8 hours): 250 pg/mL
- Female NHP Serum G-CSF / EPO Concentration ([2]; 0.005 mg/kg IV, 24 hours): 302 pg/mL
- Male NHP Serum G-CSF / EPO Concentration ([2]; 0.005 mg/kg IV, 24 hours): 113 pg/mL
- Female NHP Serum G-CSF / EPO Concentration ([2]; 0.005 mg/kg IV, 48 hours): 11 pg/mL
- Male NHP Serum G-CSF / EPO Concentration ([2]; 0.005 mg/kg IV, 48 hours): 29 pg/mL
- Female NHP Serum G-CSF / EPO Concentration ([2]; 0.005 mg/kg IV, 72 hours): <7.8 pg/mL
- Male NHP Serum G-CSF / EPO Concentration ([2]; 0.005 mg/kg IV, 72 hours): <7.8 pg/mL
- Female NHP Serum G-CSF / EPO Concentration ([2]; 0.005 mg/kg IV, 7 days): <7.8 pg/mL
- Male NHP Serum G-CSF / EPO Concentration ([2]; 0.005 mg/kg IV, 7 days): <7.8 pg/mL
- Female NHP Serum G-CSF / EPO Concentration ([2]; 0.005 mg/kg IV, Pre-bleed): <7.8 pg/mL
- Male NHP Serum G-CSF / EPO Concentration ([2]; 0.005 mg/kg IV, Pre-bleed): <7.8 pg/mL
- Female NHP Serum G-CSF / EPO Concentration ([2]; 0.05 mg/kg IV, 8 hours): 19,858 pg/ml
- Male NHP Serum G-CSF / EPO Concentration ([2]; 0.05 mg/kg IV, 8 hours): 7,072 pg/ml
- Female NHP Serum G-CSF / EPO Concentration ([2]; 0.05 mg/kg IV, 24 hours): 18,187 pg/ml
- Male NHP Serum G-CSF / EPO Concentration ([2]; 0.05 mg/kg IV, 24 hours): 4,913 pg/ml
- Female NHP Serum G-CSF / EPO Concentration ([2]; 0.05 mg/kg IV, 48 hours): 5,291 pg/ml
- Male NHP Serum G-CSF / EPO Concentration ([2]; 0.05 mg/kg IV, 48 hours): 498 pg/mL
- Female NHP Serum G-CSF / EPO Concentration ([2]; 0.05 mg/kg IV, 72 hours): 744 pg/mL
- Male NHP Serum G-CSF / EPO Concentration ([2]; 0.05 mg/kg IV, 72 hours): 60 pg/mL
- Female NHP Serum G-CSF / EPO Concentration ([2]; 0.05 mg/kg IV, 7 days): <7.8 pg/mL
- Male NHP Serum G-CSF / EPO Concentration ([2]; 0.05 mg/kg IV, 7 days): <7.8 pg/mL
- Female NHP Serum G-CSF / EPO Concentration ([2]; 0.05 mg/kg IV, Pre-bleed): <7.8 pg/mL
- Male NHP Serum G-CSF / EPO Concentration ([2]; 0.05 mg/kg IV, Pre-bleed): <7.8 pg/mL
- Female NHP Serum G-CSF / EPO Concentration ([2]; 0.5 mg/kg IV, 8 hours): 158,771 pg/ml
- Male NHP Serum G-CSF / EPO Concentration ([2]; 0.5 mg/kg IV, 8 hours): 119,086 pg/ml
- Female NHP Serum G-CSF / EPO Concentration ([2]; 0.5 mg/kg IV, 24 hours): 133,978 pg/ml
- Male NHP Serum G-CSF / EPO Concentration ([2]; 0.5 mg/kg IV, 24 hours): 85,825 pg/ml
- Female NHP Serum G-CSF / EPO Concentration ([2]; 0.5 mg/kg IV, 48 hours): 45,250 pg/ml
- Male NHP Serum G-CSF / EPO Concentration ([2]; 0.5 mg/kg IV, 48 hours): 64,793 pg/ml
- Female NHP Serum G-CSF / EPO Concentration ([2]; 0.5 mg/kg IV, 72 hours): 15,097 pg/ml
- Male NHP Serum G-CSF / EPO Concentration ([2]; 0.5 mg/kg IV, 72 hours): 20,407 pg/ml
- Female NHP Serum G-CSF / EPO Concentration ([2]; 0.5 mg/kg IV, 7 days): <7.8 pg/mL
- Male NHP Serum G-CSF / EPO Concentration ([2]; 0.5 mg/kg IV, 7 days): <7.8 pg/mL
- Female NHP Serum G-CSF / EPO Concentration ([2]; 0.5 mg/kg IV, Pre-bleed): <7.8 pg/mL
- Male NHP Serum G-CSF / EPO Concentration ([2]; 0.5 mg/kg IV, Pre-bleed): <7.8 pg/mL
- protein expression not detected beyond ([2]; NHP IV): ≤ 7 days
- Average Protein Product, serum (mice [3]): 191.5 pg/mL
- Average Protein Product, serum (human EPO) (mice [4]): 72.03 pg/mL
